Measurements: paper PMC9482650, “Quantitative fragmentomics allow affinity mapping of interactomes” (Nature Communications, 2022)

T1: DLG3_2, Q92796
T1 sequence (Q92796 221-321, limits assumed, looked up): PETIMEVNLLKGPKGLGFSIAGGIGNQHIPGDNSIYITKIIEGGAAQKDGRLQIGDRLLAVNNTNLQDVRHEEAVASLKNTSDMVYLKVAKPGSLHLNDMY

T2: DFNB31_3, Q9P202
T2 sequence (Q9P202 811-907, limits assumed, looked up): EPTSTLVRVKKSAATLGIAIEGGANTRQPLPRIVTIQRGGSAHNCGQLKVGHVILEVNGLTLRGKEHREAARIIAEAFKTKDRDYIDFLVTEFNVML

T3: DLG3_3, Q92796
T3 sequence (Q92796 374-475, limits assumed, looked up): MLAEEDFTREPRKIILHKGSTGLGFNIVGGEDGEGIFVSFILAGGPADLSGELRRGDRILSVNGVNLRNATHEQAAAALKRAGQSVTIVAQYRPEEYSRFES

T4: HTRA4, P83105
T4 sequence (P83105 378-476, limits assumed, looked up): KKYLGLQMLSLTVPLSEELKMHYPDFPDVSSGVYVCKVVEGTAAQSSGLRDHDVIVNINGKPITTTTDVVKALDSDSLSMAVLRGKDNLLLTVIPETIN

T5: LIN7C, Q9NUP9
T5 sequence (Q9NUP9 88-185, limits assumed, looked up): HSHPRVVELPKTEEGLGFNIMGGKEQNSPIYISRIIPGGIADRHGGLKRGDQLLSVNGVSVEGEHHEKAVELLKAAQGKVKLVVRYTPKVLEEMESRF

T6: PDZD2_2, O15018
T6 sequence (O15018 329-429, limits assumed, looked up): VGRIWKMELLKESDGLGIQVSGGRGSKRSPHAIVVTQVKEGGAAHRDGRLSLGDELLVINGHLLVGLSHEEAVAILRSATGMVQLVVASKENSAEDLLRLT

T7: MPP7, Q5T2T1
T7 sequence (Q5T2T1 134-230, limits assumed, looked up): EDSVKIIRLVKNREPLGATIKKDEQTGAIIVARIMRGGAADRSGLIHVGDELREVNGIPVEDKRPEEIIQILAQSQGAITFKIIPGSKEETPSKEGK

T8: RADIL, Q96JH8
T8 sequence (Q96JH8 971-1071, limits assumed, looked up): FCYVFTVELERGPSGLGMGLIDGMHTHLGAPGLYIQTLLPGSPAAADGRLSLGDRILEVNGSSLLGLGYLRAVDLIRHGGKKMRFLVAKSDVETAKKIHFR

T9: PTPN13_1, Q12923
T9 sequence (Q12923 1088-1188, limits assumed, looked up): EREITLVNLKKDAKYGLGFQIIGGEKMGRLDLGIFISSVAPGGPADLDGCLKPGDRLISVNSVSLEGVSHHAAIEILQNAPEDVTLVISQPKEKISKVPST

T10: TX1BP3, O14907
T10 sequence (O14907 10-122, limits assumed, looked up): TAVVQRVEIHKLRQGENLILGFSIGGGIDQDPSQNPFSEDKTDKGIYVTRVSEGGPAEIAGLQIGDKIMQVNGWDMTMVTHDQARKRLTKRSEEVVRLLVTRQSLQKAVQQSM

T11: DFNB31_2, Q9P202
T11 sequence (Q9P202 274-371, limits assumed, looked up): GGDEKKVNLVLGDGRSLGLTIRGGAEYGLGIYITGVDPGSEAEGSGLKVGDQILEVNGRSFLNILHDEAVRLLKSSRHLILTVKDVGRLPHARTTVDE


Molecular target: Inadl_6, Q8NI35
Sequence (Q8NI35 1058-1167): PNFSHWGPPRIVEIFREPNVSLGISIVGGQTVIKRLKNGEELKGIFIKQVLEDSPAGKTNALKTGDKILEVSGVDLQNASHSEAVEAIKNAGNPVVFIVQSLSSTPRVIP
Experiment: holdup assay
Design: key: below the threshold = too weak to quantify, mostly under pKd 3.1 to 4
Details: plain residues with an end cap or a label only (N-terminal biotin on a linker: ado-ado)

Row | pKd | Binder
1 | 4.46 | NASRTRITFV [MCM7, P33993]

Molecular target: FRMPD2_3, Q68DX3
Sequence (Q68DX3 1073-1166): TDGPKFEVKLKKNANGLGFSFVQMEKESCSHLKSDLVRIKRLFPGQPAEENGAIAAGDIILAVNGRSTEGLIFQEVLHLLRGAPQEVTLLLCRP
Experiment: holdup assay
Design: key: below the threshold = too weak to quantify, mostly under pKd 3.1 to 4
Details: plain residues with an end cap or a label only (N-terminal biotin on a linker: ado-ado)

Row | pKd | Binder
2 | below the threshold | NASRTRITFV [MCM7, P33993]

Molecular target: T1, DLG3_2, Q92796
Experiment: holdup assay
Design: key: below the threshold = too weak to quantify, mostly under pKd 3.1 to 4
Details: plain residues with an end cap or a label only (N-terminal biotin on a linker: ado-ado)

Row | pKd | Binder
3 | 4.75 | NASRTRITFV [MCM7, P33993]

Molecular target: DLG4_3, P78352
Sequence (P78352 306-403): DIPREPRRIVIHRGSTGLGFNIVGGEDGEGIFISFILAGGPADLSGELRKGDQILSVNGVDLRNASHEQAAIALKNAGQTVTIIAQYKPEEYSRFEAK
Experiment: holdup assay
Design: key: below the threshold = too weak to quantify, mostly under pKd 3.1 to 4
Details: plain residues with an end cap or a label only (N-terminal biotin on a linker: ado-ado)

Row | pKd | Binder
4 | 4.33 | NASRTRITFV [MCM7, P33993]

Molecular target: T2, DFNB31_3, Q9P202
Experiment: holdup assay
Design: key: below the threshold = too weak to quantify, mostly under pKd 3.1 to 4
Details: plain residues with an end cap or a label only (N-terminal biotin on a linker: ado-ado)

Row | pKd | Binder
5 | 4.74 | NASRTRITFV [MCM7, P33993]

Molecular target: HTRA2, O43464
Sequence (O43464 355-458): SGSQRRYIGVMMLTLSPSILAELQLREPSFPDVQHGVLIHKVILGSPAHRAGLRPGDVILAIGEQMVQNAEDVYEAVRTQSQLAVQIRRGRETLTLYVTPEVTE
Experiment: holdup assay
Design: key: below the threshold = too weak to quantify, mostly under pKd 3.1 to 4
Details: plain residues with an end cap or a label only (N-terminal biotin on a linker: ado-ado)

Row | pKd | Binder
6 | 4.52 | NASRTRITFV [MCM7, P33993]

Molecular target: PICK1, Q9NRD5
Sequence (Q9NRD5 17-115): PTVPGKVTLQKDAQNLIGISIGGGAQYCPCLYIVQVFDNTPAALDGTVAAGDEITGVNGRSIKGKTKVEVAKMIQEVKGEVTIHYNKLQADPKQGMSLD
Experiment: holdup assay
Design: key: below the threshold = too weak to quantify, mostly under pKd 3.1 to 4
Details: plain residues with an end cap or a label only (N-terminal biotin on a linker: ado-ado)

Row | pKd | Binder
7 | 4.17 | NASRTRITFV [MCM7, P33993]

Molecular target: GRIP2_4, Q9C0E4
Sequence (Q9C0E4 446-548): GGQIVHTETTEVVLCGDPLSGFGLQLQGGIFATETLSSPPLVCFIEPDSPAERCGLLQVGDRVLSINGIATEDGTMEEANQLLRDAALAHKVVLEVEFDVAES
Experiment: holdup assay
Design: key: below the threshold = too weak to quantify, mostly under pKd 3.1 to 4
Details: plain residues with an end cap or a label only (N-terminal biotin on a linker: ado-ado)

Row | pKd | Binder
8 | below the threshold | NASRTRITFV [MCM7, P33993]

Molecular target: IL16_3, Q14005
Sequence (Q14005 1107-1207): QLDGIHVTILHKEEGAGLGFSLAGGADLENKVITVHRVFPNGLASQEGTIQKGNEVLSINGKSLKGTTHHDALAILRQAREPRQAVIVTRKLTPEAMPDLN
Experiment: holdup assay
Design: key: below the threshold = too weak to quantify, mostly under pKd 3.1 to 4
Details: plain residues with an end cap or a label only (N-terminal biotin on a linker: ado-ado)

Row | pKd | Binder
9 | below the threshold | NASRTRITFV [MCM7, P33993]

Molecular target: T3, DLG3_3, Q92796
Experiment: holdup assay
Design: key: below the threshold = too weak to quantify, mostly under pKd 3.1 to 4
Details: plain residues with an end cap or a label only (N-terminal biotin on a linker: ado-ado)

Row | pKd | Binder
10 | 4.47 | NASRTRITFV [MCM7, P33993]

Molecular target: T4, HTRA4, P83105
Experiment: holdup assay
Design: key: below the threshold = too weak to quantify, mostly under pKd 3.1 to 4
Details: plain residues with an end cap or a label only (N-terminal biotin on a linker: ado-ado)

Row | pKd | Binder
11 | 4.59 | NASRTRITFV [MCM7, P33993]

Molecular target: T5, LIN7C, Q9NUP9
Experiment: holdup assay
Design: key: below the threshold = too weak to quantify, mostly under pKd 3.1 to 4
Details: plain residues with an end cap or a label only (N-terminal biotin on a linker: ado-ado)

Row | pKd | Binder
12 | below the threshold | NASRTRITFV [MCM7, P33993]

Molecular target: Inadl_4, Q8NI35
Sequence (Q8NI35 547-651): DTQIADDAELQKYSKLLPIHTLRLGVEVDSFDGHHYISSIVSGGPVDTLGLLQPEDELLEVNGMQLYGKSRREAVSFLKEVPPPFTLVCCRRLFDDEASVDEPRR
Experiment: holdup assay
Design: key: below the threshold = too weak to quantify, mostly under pKd 3.1 to 4
Details: plain residues with an end cap or a label only (N-terminal biotin on a linker: ado-ado)

Row | pKd | Binder
13 | below the threshold | NASRTRITFV [MCM7, P33993]

Molecular target: SCRIB_3, Q14160
Sequence (Q14160 999-1103): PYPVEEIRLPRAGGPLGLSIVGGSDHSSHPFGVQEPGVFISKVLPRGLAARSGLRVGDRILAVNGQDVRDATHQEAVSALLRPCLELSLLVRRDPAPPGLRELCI
Experiment: holdup assay
Design: key: below the threshold = too weak to quantify, mostly under pKd 3.1 to 4
Details: plain residues with an end cap or a label only (N-terminal biotin on a linker: ado-ado)

Row | pKd | Binder
14 | 4.37 | NASRTRITFV [MCM7, P33993]

Molecular target: T6, PDZD2_2, O15018
Experiment: holdup assay
Design: key: below the threshold = too weak to quantify, mostly under pKd 3.1 to 4
Details: plain residues with an end cap or a label only (N-terminal biotin on a linker: ado-ado)

Row | pKd | Binder
15 | 4.7 | NASRTRITFV [MCM7, P33993]

Molecular target: T7, MPP7, Q5T2T1
Experiment: holdup assay
Design: key: below the threshold = too weak to quantify, mostly under pKd 3.1 to 4
Details: plain residues with an end cap or a label only (N-terminal biotin on a linker: ado-ado)

Row | pKd | Binder
16 | below the threshold | NASRTRITFV [MCM7, P33993]

Molecular target: MAST1, Q9Y2H9
Sequence (Q9Y2H9 962-1065): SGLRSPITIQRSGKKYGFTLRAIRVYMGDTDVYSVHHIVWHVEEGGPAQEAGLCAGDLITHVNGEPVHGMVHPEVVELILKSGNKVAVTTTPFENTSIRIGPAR
Experiment: holdup assay
Design: key: below the threshold = too weak to quantify, mostly under pKd 3.1 to 4
Details: plain residues with an end cap or a label only (N-terminal biotin on a linker: ado-ado)

Row | pKd | Binder
17 | 4.39 | NASRTRITFV [MCM7, P33993]

Molecular target: MAGI2_2, Q86UL8
Sequence (Q86UL8 410-522): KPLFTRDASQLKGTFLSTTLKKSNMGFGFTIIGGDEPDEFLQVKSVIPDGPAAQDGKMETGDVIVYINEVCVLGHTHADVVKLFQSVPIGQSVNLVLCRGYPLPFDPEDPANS
Experiment: holdup assay
Design: key: below the threshold = too weak to quantify, mostly under pKd 3.1 to 4
Details: plain residues with an end cap or a label only (N-terminal biotin on a linker: ado-ado)

Row | pKd | Binder
18 | 5.31 | NASRTRITFV [MCM7, P33993]

Molecular target: T8, RADIL, Q96JH8
Experiment: holdup assay
Design: key: below the threshold = too weak to quantify, mostly under pKd 3.1 to 4
Details: plain residues with an end cap or a label only (N-terminal biotin on a linker: ado-ado)

Row | pKd | Binder
19 | 5.81 | NASRTRITFV [MCM7, P33993]

Molecular target: T9, PTPN13_1, Q12923
Experiment: holdup assay
Design: key: below the threshold = too weak to quantify, mostly under pKd 3.1 to 4
Details: plain residues with an end cap or a label only (N-terminal biotin on a linker: ado-ado)

Row | pKd | Binder
20 | below the threshold | NASRTRITFV [MCM7, P33993]

Molecular target: LAP2, Q96RT1
Sequence (Q96RT1 other isoform, or with tags, fused parts or gaps): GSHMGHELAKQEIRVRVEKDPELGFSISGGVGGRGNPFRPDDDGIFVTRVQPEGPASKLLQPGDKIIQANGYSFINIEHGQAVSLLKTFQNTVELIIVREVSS
Experiment: holdup assay
Design: key: below the threshold = too weak to quantify, mostly under pKd 3.1 to 4
Details: plain residues with an end cap or a label only (N-terminal biotin on a linker: ado-ado)

Row | pKd | Binder
21 | 3.49 | NASRTRITFV [MCM7, P33993]

Molecular target: MAGI2_5, Q86UL8
Sequence (Q86UL8 915-1017): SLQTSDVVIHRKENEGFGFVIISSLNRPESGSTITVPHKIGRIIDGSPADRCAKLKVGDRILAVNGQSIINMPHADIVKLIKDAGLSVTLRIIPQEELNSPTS
Experiment: holdup assay
Design: key: below the threshold = too weak to quantify, mostly under pKd 3.1 to 4
Details: plain residues with an end cap or a label only (N-terminal biotin on a linker: ado-ado)

Row | pKd | Binder
22 | 3.75 | NASRTRITFV [MCM7, P33993]

Molecular target: T10, TX1BP3, O14907
Experiment: holdup assay
Design: key: below the threshold = too weak to quantify, mostly under pKd 3.1 to 4
Details: plain residues with an end cap or a label only (N-terminal biotin on a linker: ado-ado)

Row | pKd | Binder
23 | 4.88 | NASRTRITFV [MCM7, P33993]

Molecular target: T11, DFNB31_2, Q9P202
Experiment: holdup assay
Design: key: below the threshold = too weak to quantify, mostly under pKd 3.1 to 4
Details: plain residues with an end cap or a label only (N-terminal biotin on a linker: ado-ado)

Row | pKd | Binder
24 | below the threshold | NASRTRITFV [MCM7, P33993]

Molecular target: Inadl_5, Q8NI35
Sequence (Q8NI35 673-780): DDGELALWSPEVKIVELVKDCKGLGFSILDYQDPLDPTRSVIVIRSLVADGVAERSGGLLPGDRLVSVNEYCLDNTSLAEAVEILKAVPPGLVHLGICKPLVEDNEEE
Experiment: holdup assay
Design: key: below the threshold = too weak to quantify, mostly under pKd 3.1 to 4
Details: plain residues with an end cap or a label only (N-terminal biotin on a linker: ado-ado)

Row | pKd | Binder
25 | 4.34 | NASRTRITFV [MCM7, P33993]

Molecular target: NOS1, P29475
Sequence (P29475 9-101): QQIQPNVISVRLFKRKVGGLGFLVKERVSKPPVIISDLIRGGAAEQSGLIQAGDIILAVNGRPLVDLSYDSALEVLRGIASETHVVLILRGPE
Experiment: holdup assay
Design: key: below the threshold = too weak to quantify, mostly under pKd 3.1 to 4
Details: plain residues with an end cap or a label only (N-terminal biotin on a linker: ado-ado)

Row | pKd | Binder
26 | 3.84 | NASRTRITFV [MCM7, P33993]

Molecular target: Inadl_1, Q8NI35
Sequence (Q8NI35 113-229): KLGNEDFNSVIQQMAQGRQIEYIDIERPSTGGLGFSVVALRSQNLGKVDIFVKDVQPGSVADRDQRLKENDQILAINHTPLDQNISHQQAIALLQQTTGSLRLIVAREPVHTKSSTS
Experiment: holdup assay
Design: key: below the threshold = too weak to quantify, mostly under pKd 3.1 to 4
Details: plain residues with an end cap or a label only (N-terminal biotin on a linker: ado-ado)

Row | pKd | Binder
27 | below the threshold | NASRTRITFV [MCM7, P33993]
